This passage reports ELISA O.D. results from US20040157214A1.

This assay concerns the target bovine thyroglobulin (bovine) (UniProt P01267). The assay is described as follows: phage ELISA, 200 ug/ml thyroglobulin.

Sequence of pCAT-3 non-recombinant vector phagemid (P03661 19-424): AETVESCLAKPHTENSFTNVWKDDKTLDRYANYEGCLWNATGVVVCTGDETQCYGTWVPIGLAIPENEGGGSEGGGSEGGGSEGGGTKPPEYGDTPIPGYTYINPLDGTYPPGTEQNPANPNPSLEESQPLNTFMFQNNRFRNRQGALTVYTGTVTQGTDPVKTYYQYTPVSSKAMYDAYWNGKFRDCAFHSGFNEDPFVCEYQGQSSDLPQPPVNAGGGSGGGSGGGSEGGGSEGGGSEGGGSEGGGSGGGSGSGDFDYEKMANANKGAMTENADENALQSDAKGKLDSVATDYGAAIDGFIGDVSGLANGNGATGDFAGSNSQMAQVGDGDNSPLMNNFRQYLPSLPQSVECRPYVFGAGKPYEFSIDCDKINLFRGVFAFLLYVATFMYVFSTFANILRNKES
Sequence of bovine thyroglobulin (bovine) (P01267 20-2769 limits assumed): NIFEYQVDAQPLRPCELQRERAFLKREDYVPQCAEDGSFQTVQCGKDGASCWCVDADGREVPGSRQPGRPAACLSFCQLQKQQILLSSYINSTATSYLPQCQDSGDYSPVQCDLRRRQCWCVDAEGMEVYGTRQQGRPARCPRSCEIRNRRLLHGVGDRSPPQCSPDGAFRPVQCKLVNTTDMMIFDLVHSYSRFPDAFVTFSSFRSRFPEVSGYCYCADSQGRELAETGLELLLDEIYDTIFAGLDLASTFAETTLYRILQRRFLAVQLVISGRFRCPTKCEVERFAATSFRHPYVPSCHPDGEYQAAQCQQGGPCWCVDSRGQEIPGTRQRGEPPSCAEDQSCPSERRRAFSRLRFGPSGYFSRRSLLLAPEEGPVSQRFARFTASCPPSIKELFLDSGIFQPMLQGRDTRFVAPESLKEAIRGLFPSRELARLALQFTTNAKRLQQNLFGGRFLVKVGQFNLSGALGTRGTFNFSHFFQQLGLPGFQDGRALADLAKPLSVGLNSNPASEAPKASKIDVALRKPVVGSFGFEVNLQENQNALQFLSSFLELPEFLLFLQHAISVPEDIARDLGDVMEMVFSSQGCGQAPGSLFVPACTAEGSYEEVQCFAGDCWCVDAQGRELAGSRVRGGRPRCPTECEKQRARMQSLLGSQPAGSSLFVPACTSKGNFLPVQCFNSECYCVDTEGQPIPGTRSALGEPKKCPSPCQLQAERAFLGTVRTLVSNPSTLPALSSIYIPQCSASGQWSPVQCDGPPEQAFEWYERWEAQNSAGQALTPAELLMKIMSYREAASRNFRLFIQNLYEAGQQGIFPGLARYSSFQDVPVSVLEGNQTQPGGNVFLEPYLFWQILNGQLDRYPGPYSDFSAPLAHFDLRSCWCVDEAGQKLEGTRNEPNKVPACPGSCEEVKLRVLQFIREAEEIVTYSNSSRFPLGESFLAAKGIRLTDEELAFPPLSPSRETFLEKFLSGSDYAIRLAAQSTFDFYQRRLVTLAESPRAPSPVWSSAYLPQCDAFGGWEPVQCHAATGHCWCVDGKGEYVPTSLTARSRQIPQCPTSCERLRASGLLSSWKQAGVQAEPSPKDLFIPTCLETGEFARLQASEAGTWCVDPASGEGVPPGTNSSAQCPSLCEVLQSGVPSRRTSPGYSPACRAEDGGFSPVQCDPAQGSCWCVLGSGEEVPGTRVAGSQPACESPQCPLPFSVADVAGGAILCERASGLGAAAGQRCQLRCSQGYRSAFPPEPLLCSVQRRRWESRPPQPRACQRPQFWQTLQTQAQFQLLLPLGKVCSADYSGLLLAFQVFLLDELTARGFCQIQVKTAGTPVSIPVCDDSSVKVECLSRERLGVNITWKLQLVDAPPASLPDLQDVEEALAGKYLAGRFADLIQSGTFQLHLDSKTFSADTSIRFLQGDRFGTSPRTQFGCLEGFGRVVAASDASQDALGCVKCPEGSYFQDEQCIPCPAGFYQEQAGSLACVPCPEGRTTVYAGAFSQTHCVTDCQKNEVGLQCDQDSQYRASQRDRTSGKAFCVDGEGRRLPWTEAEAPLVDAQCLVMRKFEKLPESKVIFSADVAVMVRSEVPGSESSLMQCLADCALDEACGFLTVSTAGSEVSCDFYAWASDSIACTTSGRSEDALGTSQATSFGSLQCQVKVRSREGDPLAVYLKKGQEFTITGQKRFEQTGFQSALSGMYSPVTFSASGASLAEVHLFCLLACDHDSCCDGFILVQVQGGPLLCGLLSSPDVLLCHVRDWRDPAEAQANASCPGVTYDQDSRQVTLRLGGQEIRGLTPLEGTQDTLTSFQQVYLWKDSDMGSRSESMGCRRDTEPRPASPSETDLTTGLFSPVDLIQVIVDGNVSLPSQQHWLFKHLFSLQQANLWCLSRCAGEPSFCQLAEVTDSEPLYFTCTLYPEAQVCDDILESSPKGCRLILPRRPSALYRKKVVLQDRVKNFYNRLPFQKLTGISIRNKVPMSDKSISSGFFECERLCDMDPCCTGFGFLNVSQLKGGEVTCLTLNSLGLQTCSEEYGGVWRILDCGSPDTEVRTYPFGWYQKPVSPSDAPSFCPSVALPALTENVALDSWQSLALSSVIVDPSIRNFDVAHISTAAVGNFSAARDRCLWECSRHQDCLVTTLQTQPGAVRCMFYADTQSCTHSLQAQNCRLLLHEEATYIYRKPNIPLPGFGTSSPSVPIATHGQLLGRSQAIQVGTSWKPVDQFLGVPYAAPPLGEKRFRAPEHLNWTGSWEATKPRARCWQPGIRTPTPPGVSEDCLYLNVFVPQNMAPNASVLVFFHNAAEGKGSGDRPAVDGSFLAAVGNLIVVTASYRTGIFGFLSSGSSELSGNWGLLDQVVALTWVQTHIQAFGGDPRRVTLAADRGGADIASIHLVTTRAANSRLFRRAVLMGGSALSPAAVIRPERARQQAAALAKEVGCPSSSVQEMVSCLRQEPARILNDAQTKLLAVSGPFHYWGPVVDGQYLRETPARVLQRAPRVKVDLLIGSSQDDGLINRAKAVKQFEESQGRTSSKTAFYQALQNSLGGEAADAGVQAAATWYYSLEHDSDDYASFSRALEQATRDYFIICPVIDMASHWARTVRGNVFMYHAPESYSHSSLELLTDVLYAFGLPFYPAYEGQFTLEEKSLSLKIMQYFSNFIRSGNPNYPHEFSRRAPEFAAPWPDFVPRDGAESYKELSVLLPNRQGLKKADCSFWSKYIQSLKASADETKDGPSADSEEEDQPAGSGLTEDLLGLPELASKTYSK

In the case of “pCAT-3 non-recombinant vector phagemid (from UniProt P03661 19-424)”, the ELISA O.D. was 0.07 O.D.
